Test results taken from patent publication US20260166115A1, “POLYUNSATURATED FATTY ACID-BOUND ALPHA FETOPROTEIN PROMOTES IMMUNE SUPPRESSION BY ALTERING HUMAN DENDRITIC CELL METABOLISM” (The Regents of the University of California, priority 2022, published 2026).

Columns and labels:
[1] = system: monocyte-derived dendritic cells (DCs); assay: Glucose and lactate measurements in DC cultures; type: cell-based, human
Excerpt: (§1) DCs were differentiated in vitro similarly as previously described (Pardee, A. D., Shi, J. & Butterfield, L. H. Tumor-Derived α-Fetoprotein Impairs the Differentiation and T Cell Stimulatory Activity of Human Dendritic Cells. J Immunol. 193, 5723-5732 (2014)). In brief, cryopreserved PBMC were thawed and CD14*monocytes were magnetically labeled using CD14 MicroBeads (Miltenyi, Cat #130-050-201) and isolated by LS columns (Miltenyi, Cat #130-042-401) per the manufacturer instructions. Viable eluted cells were enumerated using trypan blue on a Nexcelom Cellometer Spectrum. To generate iDCs, monocytes were stimulated for 5 days in the presence of 800 IU/mL of rGM-CSF (Miltenyi, Cat #130-093-862) and 500 IU/mL of rIL-4 (Miltenyi, Cat #130-095-373) as well as OVA, nAFP, or tAFP in CellGenix® GMP DC media (Cat #20801-0500) 37° C. at 5% CO2. Lastly, we performed an additional 24-hour stimulation with 1000 IU/mL of rIFN-γ (Peprotech, Cat #300-02) and 250 ng/mL of LPS (Sigma Aldrich, Cat #L2630-10MG) to produce mDCs. To harvest cells, DC were detached using TrypLE™ Select (Gibco, Cat #12563011) for 15 minutes at 37° C. and then washed several times with cold PBS.
Glucose and lactate were measured by applying approximately 5 μL of supernatant to Clarity BG1000 Blood Glucose strips (Cat #75840-798) and meter (Cat #75840-800) system or the Lactate Plus strips (Nova Biomedical©, Cat #40813) and meter version 2 (Nova Biomedical©, Cat #62624) system. Each meter was quality checked with control glucose and lactate solutions and CellGenix™ media before each experiment.

mDCs generated in vitro = assay: scMEP single-cell metabolic regulome profiling by CyTOF; type: cell-based, human
Description: scMEP analysis was performed as recently described (Hartmann et al., 2021). In short, antibodies targeting metabolic features were conjugated in-house using an optimized conjugation protocol (Hartmann et al., 2019) and validated on multiple sample types. Cells were prepared for scMEP analysis by incubation with small molecules to be able to assess biosynthesis rates of DNA, RNA and protein, cisplatin-based live/dead staining, PFA-based cell fixation and cryopreservation (dx.doi.org/10.17504/protocols.io.bkwkkxcw). Next, cells were stained with metabolic antibodies in a procedure that includes surface staining for 30 min at RT, PFA-fixation for 10 min at RT, MeOH-based permeabilization for 10 min on ice, intracellular staining for 1 h at RT and DNA intercalation (dx.doi.org/10.17504/protocols.io.bntnmeme). Finally, cells were acquired on a CyTOF2 mass cytometer (Fluidigm). Protein targets and antibody information used in scMEP are listed in supplementary table 2. Raw mass spectrometry data were pre-processed, de-barcoded and imported into R environment using the flowCore package (version 2.0.1) (Hahne et al., 2009). Values were arcsin h transformed (cofactor 5) and normalized (Hartmann et al., 2021) for downstream analyses based on previously reported workflow (Nowicka et al., 2017).

[2] = system: monocyte-derived dendritic cells (DCs); assay: Flow cytometry phenotype of in vitro differentiated DCs treated with OVA, nAFP or tAFP; type: cell-based, human
Excerpt: as §1
(§2) SCENITH was performed as described in (Arguello et al., 2020). SCENITH™ reagents kit (inhibitors, puromycin and antibodies) were obtained from www.scenith.com/try-it and used according to the provided protocol for in-vitro derived myeloid cells. Briefly, control and tol-moDC cultures at desired timepoints, were treated for 18 minutes with Control (DMSO), 2-Deoxy-Glucose (2-DG; 100 mM), Oligomycin (0; 1 μM), a combination of 2DG and Oligomycin (DGO) or Harringtonine (H; 2 μg/mL). Following metabolic inhibitors, Puromycin (final concentration 10 μg/mL) was added to cultures for 17 min. After puromycin treatment, cells were detached from wells using TypLE Select (Fisher Scientific, 505914419), washed in cold PBS and stained with a combination of Human TureStain FcX (Biolegend, 422301) and fluorescent cell viability dye (Biolegend, 423105) for 10 min 4° C. in PBS. Following PBS wash step, primary antibodies against surface markers were incubated for 25 min at 4° C. in Brilliant Stain Buffer (BD Biosciences, 563794). Next cells were fixed and permeabilized using True-Nuclear Transcription Factor Buffer Set (Biolegend, 424401) as per manufacturer instructions. Intracellular staining of puromycin and protein targets was performed for 1 h in diluted (10×) permeabilization buffer at 4° C. Finally, data acquisition was performed using the Cytek Aurora flow cytometer. Primary conjugated antibody information used in SCENITH panel is listed in supplementary table 1. All antibodies were titrated to reduce spillover and increase resolution using single stained moDC (generated as described above) samples. Unstained cell controls used for autofluorescence extraction were generated for each time point, culture conditions (control, vitd3-tol-moDC and dexa-vitd3-tol-moDC) and metabolic inhibitor treatments (C, 2DG, O, DGO). Samples were unmixed using reference controls generated in combination with stained Ultracomp beads (Fisher Scientific, 01-2222-41) and stained cells using the SpectroFlo Software v2.2.0.1. The unmixed FCS files were used for data processing and analysis using FlowJo (BD, version 10.7.1). Manually gated CD14-HLA-DR*CD86+ cells were used for downstream analysis. gMFI expression values were imported into R environment for correlation and heatmap analysis using the below described R packages.

iDCs = assay: Intracellular Zn measurement by flow cytometry; type: cell-based, human; conditions: P=0.0293 vs nAFP, P=0.0228 vs OVA
Description: Intracellular Zn was quantified by flow cytometry using the Zinc Assay Kit (Cell-based) (Abcam, Cat #ab241014). Monocytes were differentiated to iDCs as described above in the presence of OVA, nAFP, tAFP, or ZnSO4. […] Cells were stained with LD Aqua for 10 minutes at RT. Cells were washed in 1× Assay Buffer, then stained in 100 μL of Assay Buffer+0.2 μL of Zn Probe for 30 minutes at 37° C. Cells were then washed twice with 1× Assay buffer then stained with HLA-DR-APC-H7 (BD, Clone: GF6-6, Cat #561358, Lot #0023290, 0339025), CD86-BV785 (BioLegend, Clone: IT2.2, Cat #305441, Lot #B277560), CD206 PE-Cy7 (Biolegend, Clone: 15-2, Cat #321123, Lot #B331254), and CD14-BUV805 (BD, Clone: M5E2, Cat #612903, Lot #0297714), in Brilliant Stain Buffer (BD Horizon, Cat #566349, Lot #0121427) for 20 minutes at 4° C. Cells were washed twice in FACS Buffer and fixed in 1% paraformaldehyde (Thermo Scientific, Cat #J19943-K2, Lot #195273, diluted in PBS) for at least 30 minutes before acquisition on a BD LSRFortessam X-50.

[3] = system: monocyte-derived dendritic cells (DCs); assay: SCENITH single-cell energetic metabolism profiling of treated DCs; type: cell-based, human; conditions: mDC HLA-DR+, CD206+, CD86+
Excerpt: as §1, §2

[4] = system: iDCs differentiated from monocytes; assay: Microarray gene expression and g:Profiler pathway analysis of treated DCs; type: cell-based, human
Excerpt: OVA, nAFP, and tAFP-treated DC were lysed, and total mRNA was obtained for microarray (Affymetrix HG-U133A). DE genes were uploaded in g:Profiler in R Studio for pathway analysis and visualization (Raudvere, U. et al. g:Profiler: a web server for functional enrichment analysis and conversions of gene lists (2019 update). Nucleic Acids Res. 47, W191-W198 (2019)).

dendritic cells (DCs) = conditions: tAFP-treated DCs; cited from earlier work

B1: tAFP: tumor-derived alpha fetoprotein, SEQ ID NO: 1; commercially available (Bio-Rad) (protein, listed as Homo sapiens)
chain: MKWVESIFLIFLLNFTESRTLHRNEYGIASILDSYQCTAEISLADLATIFFAQFVQEATYKEVSKMVKDALTAIEKPTGDEQSSGCLENQLPAFLEELCHEKEILEKYGHSDCCSQSEEGRHNCFLAHKKPTPASIPLFQVPEPVTSCEAYEEDRETFMNKFIYEIARRHPFLYAPTILLWAARYDKIIPSCCKAENAVECFQTKAATVTKELRESSLLNQHACAVMKNFGTRTFQAITVTKLSQKFTKVNFTEIQKLVLDVAHVHEHCCRGDVLDCLQDGEKIMSYICSQQDTLSNKITECCKLTTLERGQCIIHAENDEKPEGLSPNLNRFLGDRDFNQFSSGEKNIFLASFVHEYSRRHPQLAVSVILRVAKGYQELLEKCFQTENPLECQDKGEEELQKYIQESQALAKRSCGLFQKLGEYYLQNAFLVAYTKKAPQLTSSELMAITRKMAATAATCCQLSEDKLLACGEGAADIIIGHLCIRHEMTPVNPGVGQCCTSSYANRRPCFSSLVVDETYVPPAFSDDKFIFHKDLCQAQGVALQTMKQEFLINLVKQKPQITEEQLEAVIADFSGLLEKCCQGQEQEVCFAEEGQKLISKTRAALGV
intracellular glucose [1]: increase
glucose uptake ([1]; DC): take up more glucose
glucose in the culture supernatants ([1]; day 6): significantly less
lactate secreted, relative to OVA-treated DCs ([1]; media of treated DCs, all HDs): approximately twice
ASCT2 (mDCs generated in vitro): unchanged
ETC/TCA parameters ATP5A, CS and SDHA (mDCs generated in vitro): lower
GLS (mDCs generated in vitro): tended to be lower
amino acid pathway proteins CD98 and G6PD (mDCs generated in vitro): significantly decreased
expression of DC markers CD206, PD-L1, CD11b, CD1c, HLA-DR, CD86 and CD11c (mDCs generated in vitro): reduced expression
glycolysis proteins (GLUT1, GLUT3, LDHA, ENO1, GAPDH, and MTC1) (mDCs generated in vitro): modest differences that were not statistically significant
levels of cytochrome C (CytC) (mDCs generated in vitro): elevated
FAO or FAS proteins CD36, CDPT1A, HADHA, and ACLY (mDCs generated in vitro; mDCs): decreased
expression of pAMPK [2]: decreased expression
expression of the fatty acid transporter CD36 [2]: decline
co-expression of multiple activation markers (HLA-DR, CD206, CD86, ICOSLG/CD275) ([2]; Boolean analysis): decreased co-expression
DC CD86 expression ([2]; tAFP-treated DC): trend for reduced
DC CD206 expression ([2]; tAFP-treated DC): limited
DC HLA-DR expression ([2]; tAFP-treated DC): limited
increase in Zn MFI compared to nAFP or OVA-treated iDCs (iDCs): ~30%
fatty acid and glutaminolysis (FAAO) (SCENITH) [3]: reduction
glycolysis (SCENITH) [3]: dramatic increase
mitochondrial dependency (SCENITH) [3]: reduction
ACS gene [4]: did not reach statistical significance
SLC2A3 (GLUT3) gene expression [4]: increase
gene expression of CPT1A [4]: increased
genes involved in fatty acid metabolism (PDH, ACLY, ACC, FASN, LPL, CD36, CACT) [4]: downregulation
pathways associated with lipid metabolism ([4]; tAFP compared to nAFP): significantly downregulated
upregulated gene pathways ([4]; tAFP compared to nAFP): stress response to metal ions, particularly zinc
mitochondrial mass (dendritic cells (DCs)): decreased
